According to patent US20230243822A1, “MOLECULAR DISEASE PROFILE AND USE THEREOF FOR MONITORING AND TREATING RHEUMATAOID ARTHRITIS” (JANSSEN BIOTECH, INC., priority 2020, published 2023):

System: 4-analyte M-DP panel (CRP, CXCL10, CXCL13, SAA)
Experiment: Pharmacodynamic M-DP score, 4-analyte panel CRP, CXCL10, CXCL13, SAA (SOMAscan), clinical studies in RA
Format: in vivo, human
Details: 4-analyte; for M-DP score mean difference ± SD, Good vs. No / M-DP score mean ± SD, DAS28-CRP response group Good / M-DP score mean ± SD, DAS28-CRP response group Moderate / M-DP score mean ± SD, DAS28-CRP response group No: response at week 24
From the text: Serum samples and data from eight interventional clinical studies with seven different active treatments for RA or placebo treatment were obtained and analyzed: sirukumab (anti-IL-6) and placebo treatments in SIRROUND-M (NCT01689532; Takeuchi T, et al. Arthritis Res Ther. 2018 Mar. 7; 20(1): 42), SIRROUND-D (NCT01604343; Takeuchi T, et al. Ann Rheum Dis. 2017 Dec.; 76(12): 2001-2008), and SIRROUND-T (NCT01606761; Aletaha D, et al. Lancet. 2017 Mar. 25; 389(10075): 1206-1217); sirukumab and adalimumab (anti-TNF-alpha) treatments in SIRROUND-H (NCT02019472; Taylor PC, et al. Ann Rheum Dis. 2018 May; 77(5): 658-666); golimumab (anti-TNF-alpha) treatment in GO-FURTHER (NCT00973479; Weinblatt ME, et al. Ann Rheum Dis. 2013 March; 72(3): 381-9); guselkumab (anti-IL-23p19), ustekinumab (anti-IL-12/IL-23p40), and placebo treatments in CNTO1275ARA2001 (NCT01645280; Cox JD, et al. […]); JNJ-40346527 (colony-stimulating factor-1 inhibitor) and placebo treatments in 40346527ARA2001 (NCT01597739; Genovese MC, et al. J Rheumatol. 2015 October; 42(10): 1752-60). Plasma samples were obtained from the RA-MAP TACERA study (Cope AP, et al. Nat Rev Rheumatol. 2018 January; 14(1): 53-60) before (baseline) and 6-months after initiation of conventional synthetic disease-modifying anti-rheumatic drugs (csDMARDs). Details of treatment dose groups, concomitant methotrexate use, and previous experience with csDMARDs and biologics are reported in Table 1. The studies were conducted in accordance with the Declaration of Helsinki. The study protocols were reviewed and approved by an independent ethics committee or institutional review board for each study center. Written informed consent was obtained from all patients before study entry. Additional study details and patient characteristics are available in the referenced publications for each study. For SIRROUND-D and SIRROUND-T studies, sets of serum samples from demographically-matched healthy controls were obtained from commercial sources (BioIVT, Westbury, N.Y.).
Serum samples from baseline (week 0) and the time points indicated in Table 1 were provided for quantification of 1189 serum analytes using the SomaScan v3.1 platform (SomaLogic, Boulder, Colo.; www.somalogic.com), with the exception of RA-MAP TACERA, for which plasma samples were analyzed for 1301 analytes using the SomaScan v3.2 platform. For some studies, a redacted dataset reporting data for a subset of the analytes was obtained. Relative fluorescence unit (RFU) data were sequentially normalized for hybridization controls (internal standards per samples), median signal across all samples (assumes same total protein concentration across sample set), and calibration controls (common sample standards across analysis plates). Samples failed quality control standards defined by Somalogic were excluded from analyses. The normalized RFU values were log2-transformed for subsequent analyses.
Changes in analyte expression levels were calculated for individual samples as the log2 transform of the ratio of the analyte level at the indicated time point (visit level) over the analyte level at baseline (baseline level) for a given subject, i.e., log 2(visit level/baseline level). Changes in RA disease-associated analytes per sample were summarized using a pharmacodynamic (PD) molecular disease profile (M-DP) score, defined as the median value of the log 2(visit level/baseline level) values for analytes in the defined M-DP analyte set. […] PD M-DP scores in the log 2(visit level/baseline level) scale can be transformed to percent change from baseline, using the transformation: (2^M-DP score−1)×100%.
In selecting the best minimal set of analytes that performs similarly to the full 14-analyte set, analyte sets that results in significant associations between DAS28-CRP EULAR good vs. no response with p<0.05 for each study were prioritized (Table 4). […]

[1] = SIRROUND-D, score at week 4, sirukumab SC 50 mg q4w
[2] = SIRROUND-D, score at week 4, sirukumab SC 100 mg q2w
[3] = SIRROUND-D, score at week 24, sirukumab SC 50 mg q4w
[4] = SIRROUND-D, score at week 24, sirukumab SC 100 mg q2w
[5] = SIRROUND-H, score at week 4, sirukumab SC 50 mg q4w or adalimumab SC 40 mg q2w
[6] = SIRROUND-M, score at week 4, sirukumab SC 50 mg q4w
[7] = SIRROUND-M, score at week 4, sirukumab SC 100 mg q2w
[8] = SIRROUND-T, score at week 4, sirukumab SC 50 mg q4w
[9] = SIRROUND-T, score at week 4, sirukumab SC 100 mg q2w
[10] = SIRROUND-T, score at week 24, sirukumab SC 50 mg q4w
[11] = SIRROUND-T, score at week 24, sirukumab SC 100 mg q2w

B1: Sirukumab (antibody, chains of the INN, looked up, V domains shown)
VH: EVQLVESGGGLVQPGGSLRLSCAASGFTFSPFAMSWVRQAPGKGLEWVAKISPGGSWTYYSDTVTGRFTISRDNAKNSLYLQMNSLRAEDTAVYYCARQLWGYYALDIWGQGTTVTVSS
VL: EIVLTQSPATLSLSPGERATLSCSASISVSYMYWYQQKPGQAPRLLIYDMSNLASGIPARFSGSGSGTDFTLTISSLEPEDFAVYYCMQWSGYPYTFGGGTKVEIK
notes: a human anti-interleukin-6 (IL-6) monoclonal antibody
[1]
  M-DP score mean ± SD, All treated: −1.09 ± 0.80 log2 (fold/baseline)
  M-DP score mean difference ± SD, Good vs. No: −0.47 ± 0.79 (0.0012) log2 (fold/baseline)
  M-DP score mean ± SD, DAS28-CRP response group Good: −1.26 ± 0.78 log2 (fold/baseline)
  M-DP score mean ± SD, DAS28-CRP response group Moderate: −1.05 ± 0.76 log2 (fold/baseline)
  M-DP score mean ± SD, DAS28-CRP response group No: −0.79 ± 0.81 log2 (fold/baseline)
[2]
  M-DP score mean ± SD, All treated: −1.21 ± 0.78 log2 (fold/baseline)
  M-DP score mean difference ± SD, Good vs. No: −0.47 ± 0.76 (0.0041) log2 (fold/baseline)
  M-DP score mean ± SD, DAS28-CRP response group Good: −1.39 ± 0.75 log2 (fold/baseline)
  M-DP score mean ± SD, DAS28-CRP response group Moderate: −1.01 ± 0.75 log2 (fold/baseline)
  M-DP score mean ± SD, DAS28-CRP response group No: −0.92 ± 0.81 log2 (fold/baseline)
[3]
  M-DP score mean ± SD, All treated: −1.43 ± 0.82 log2 (fold/baseline)
  M-DP score mean ± SD, DAS28-CRP response group Good: −1.50 ± 0.83 log2 (fold/baseline)
  M-DP score mean ± SD, DAS28-CRP response group Moderate: −1.46 ± 0.57 log2 (fold/baseline)
  M-DP score mean ± SD, DAS28-CRP response group No: 0.27 ± 0.00 log2 (fold/baseline)
[4]
  M-DP score mean ± SD, All treated: −1.79 ± 0.78 log2 (fold/baseline)
  M-DP score mean ± SD, DAS28-CRP response group Good: −1.80 ± 0.80 log2 (fold/baseline)
  M-DP score mean ± SD, DAS28-CRP response group Moderate: −1.84 ± 0.95 log2 (fold/baseline)
  M-DP score mean ± SD, DAS28-CRP response group No: −1.59 ± 0.19 log2 (fold/baseline)
[5]
  M-DP score mean ± SD, All treated: −0.88 ± 0.69 log2 (fold/baseline)
  M-DP score mean difference ± SD, Good vs. No: −0.40 ± 0.59 (0.0549) log2 (fold/baseline)
  M-DP score mean ± SD, DAS28-CRP response group Good: −0.92 ± 0.65 log2 (fold/baseline)
  M-DP score mean ± SD, DAS28-CRP response group Moderate: −0.95 ± 0.74 log2 (fold/baseline)
  M-DP score mean ± SD, DAS28-CRP response group No: −0.52 ± 0.41 log2 (fold/baseline)
[6]
  M-DP score mean ± SD, All treated: −1.69 ± 0.76 log2 (fold/baseline)
  M-DP score mean difference ± SD, Good vs. No: −0.96 ± 0.66 (0.0010) log2 (fold/baseline)
  M-DP score mean ± SD, DAS28-CRP response group Good: −1.92 ± 0.63 log2 (fold/baseline)
  M-DP score mean ± SD, DAS28-CRP response group Moderate: −1.34 ± 0.75 log2 (fold/baseline)
  M-DP score mean ± SD, DAS28-CRP response group No: −0.96 ± 0.85 log2 (fold/baseline)
[7]
  M-DP score mean ± SD, All treated: −1.87 ± 0.75 log2 (fold/baseline)
  M-DP score mean ± SD, DAS28-CRP response group Good: −1.86 ± 0.69 log2 (fold/baseline)
  M-DP score mean ± SD, DAS28-CRP response group Moderate: −1.99 ± 0.94 log2 (fold/baseline)
  M-DP score mean ± SD, DAS28-CRP response group No: −1.21 ± 0.43 log2 (fold/baseline)
[8]
  M-DP score mean ± SD, All treated: −1.02 ± 0.84 log2 (fold/baseline)
  M-DP score mean difference ± SD, Good vs. No: −0.39 ± 0.73 (0.0126) log2 (fold/baseline)
  M-DP score mean ± SD, DAS28-CRP response group Good: −0.91 ± 0.75 log2 (fold/baseline)
  M-DP score mean ± SD, DAS28-CRP response group Moderate: −0.82 ± 0.79 log2 (fold/baseline)
  M-DP score mean ± SD, DAS28-CRP response group No: −0.50 ± 0.70 log2 (fold/baseline)
[9]
  M-DP score mean ± SD, All treated: −0.79 ± 0.76 log2 (fold/baseline)
  M-DP score mean difference ± SD, Good vs. No: −0.34 ± 0.81 (0.0416) log2 (fold/baseline)
  M-DP score mean ± SD, DAS28-CRP response group Good: −1.13 ± 0.80 log2 (fold/baseline)
  M-DP score mean ± SD, DAS28-CRP response group Moderate: −1.05 ± 0.93 log2 (fold/baseline)
  M-DP score mean ± SD, DAS28-CRP response group No: −0.79 ± 0.83 log2 (fold/baseline)
[10]
  M-DP score mean ± SD, All treated: −0.85 ± 0.81 log2 (fold/baseline)
  M-DP score mean difference ± SD, Good vs. No: −0.43 ± 0.79 (0.0167) log2 (fold/baseline)
  M-DP score mean ± SD, DAS28-CRP response group Good: −0.98 ± 0.81 log2 (fold/baseline)
  M-DP score mean ± SD, DAS28-CRP response group Moderate: −0.88 ± 0.81 log2 (fold/baseline)
  M-DP score mean ± SD, DAS28-CRP response group No: −0.55 ± 0.76 log2 (fold/baseline)
[11]
  M-DP score mean ± SD, All treated: −1.03 ± 0.83 log2 (fold/baseline)
  M-DP score mean difference ± SD, Good vs. No: −0.44 ± 0.78 (0.0067) log2 (fold/baseline)
  M-DP score mean ± SD, DAS28-CRP response group Good: −1.18 ± 0.80 log2 (fold/baseline)
  M-DP score mean ± SD, DAS28-CRP response group Moderate: −1.19 ± 0.90 log2 (fold/baseline)
  M-DP score mean ± SD, DAS28-CRP response group No: −0.74 ± 0.75 log2 (fold/baseline)
